Assay [1] has as its target T1, FcγRIa extracellular domain, C-terminal His tag (human, UniProt P12314 16-292).
T1 construct: extracellular domain; also called 1a
Put plainly: SPR (Biacore); binding relative to GpH7-A5/GpH7-B3/GpL16-k0 x100.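 Also: antibodies captured on a chip surface, soluble FcγR flowed over in HBS-EP+ running buffer at 25 °C.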 On the technique in general: In SPR one partner is held on a chip, and binding of the other changes the refractive index at the surface.

The target of assay [2] is T2, FcγRIIa(R) extracellular domain, C-terminal His tag (human, UniProt P12318 34-217).
T2 construct: extracellular domain; Allotype R131; also called 2aR
T2 sequence: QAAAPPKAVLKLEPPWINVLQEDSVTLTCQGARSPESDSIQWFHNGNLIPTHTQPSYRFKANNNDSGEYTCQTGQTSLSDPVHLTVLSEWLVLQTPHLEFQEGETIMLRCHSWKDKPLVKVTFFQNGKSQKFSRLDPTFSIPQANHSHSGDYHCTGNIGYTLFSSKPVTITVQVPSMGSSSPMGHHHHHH
The description is as above.

In assay [3] the target is T3, FcγRIIa(H) extracellular domain, C-terminal His tag (human, UniProt P12318 34-217).
T3 construct: extracellular domain; Allotype H131; also called 2aH
T3 sequence: T2 sequence with R134H
Described as above.

In assay [4] the target is T4, FcγRIIb extracellular domain, C-terminal His tag (human, UniProt P31994 43-217).
T4 construct: extracellular domain; also called 2b
T4 sequence: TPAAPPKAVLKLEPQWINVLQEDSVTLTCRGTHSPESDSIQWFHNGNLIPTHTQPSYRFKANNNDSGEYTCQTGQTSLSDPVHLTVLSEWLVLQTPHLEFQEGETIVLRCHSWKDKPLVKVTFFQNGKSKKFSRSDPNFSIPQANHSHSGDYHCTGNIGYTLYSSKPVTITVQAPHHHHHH
Described as above.

Assay [5] deals with T5, FcγRIIIa extracellular domain, C-terminal His tag (human, UniProt P08637 17-208).
T5 construct: extracellular domain; also called 3a
Described as above.

In assay [6] the target is T6, FcγRIIIaV (human, UniProt P08637 17-208).
T6 construct: extracellular domain
Put plainly: SPR (Biacore), antibody captured, FcγR as analyte, 1:1 Langmuir fit.

Residue numbers refer to the chain shown, from its start.

T1 sequence (P12314 other isoform, or with tags, fused parts or gaps): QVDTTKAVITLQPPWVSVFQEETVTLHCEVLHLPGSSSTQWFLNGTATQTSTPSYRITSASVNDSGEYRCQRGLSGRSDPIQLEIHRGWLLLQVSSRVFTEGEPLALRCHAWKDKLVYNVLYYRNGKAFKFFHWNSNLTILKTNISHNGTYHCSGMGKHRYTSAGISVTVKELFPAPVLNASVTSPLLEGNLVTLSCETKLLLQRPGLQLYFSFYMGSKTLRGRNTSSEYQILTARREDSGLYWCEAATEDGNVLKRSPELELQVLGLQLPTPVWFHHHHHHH
T5 sequence (P08637 other isoform, or with tags, fused parts or gaps): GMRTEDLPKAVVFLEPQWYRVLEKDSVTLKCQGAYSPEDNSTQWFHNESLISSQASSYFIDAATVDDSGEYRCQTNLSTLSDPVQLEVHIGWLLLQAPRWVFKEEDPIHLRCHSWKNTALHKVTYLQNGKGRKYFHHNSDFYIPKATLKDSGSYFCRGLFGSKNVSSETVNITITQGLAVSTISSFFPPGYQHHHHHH
T6 sequence (P08637 other isoform, or with tags, fused parts or gaps): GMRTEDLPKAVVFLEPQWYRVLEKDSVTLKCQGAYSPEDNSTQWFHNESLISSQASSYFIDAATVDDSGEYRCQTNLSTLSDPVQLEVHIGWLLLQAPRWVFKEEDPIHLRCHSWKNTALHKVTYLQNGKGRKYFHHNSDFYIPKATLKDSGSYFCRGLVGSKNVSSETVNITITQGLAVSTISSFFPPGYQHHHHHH

B1: GpH7-A5/GpH7-B3 variant S324_02A/GpL16-k0 (antibody, human IgG1, kappa)
heavy 1: not shown
heavy 2: not shown
light: DIVMTQSPLSLPVTPGEPASISCQASESLVHSNRNTYLHWYLQKPGQSPQLLIYKVSNRFSGVPDRFSGSGSGTDFTLKISRVEAEDVGVYYCSQNTHVPPTFGQGTKVEIERTVAAPSVFIFPPSDEQLKSGTASVVCLLNNFYPREAKVQWKVDNALQSGNSQESVTEQDSKDSTYSLSSTLTLSKADYEKHKVYACEVTHQGLSSPVTKSFNRGEC
notes: He Ab: anti-glypican 3 IgG1 heterodimer, only the GpH7-B3 chain mutated; position in EU numbering; also called He Ab
For the molecule B1, the “He/Con 1a” value in assay [1] was found to be 96.9%. Also, the “He/Con 2aR” value in assay [2] worked out at 99.9%. For the same molecule, in assay [3], the “He/Con 2aH” value is 114%. For the same molecule, in assay [4], the “He/Con 2b” value came out at 102%. In addition, the “He/Con 3a” value in assay [5] was determined as 113%.

B2: GpH7-A5/GpH7-B3 variant S324_16H/GpL16-k0 (antibody, human IgG1, kappa)
heavy 1: not shown
heavy 2: not shown
light: B1 light
notes: as for B1
On to B2, for which, in assay [1], the “He/Con 1a” value is 106%. Further, the “He/Con 2aR” value in assay [2] was determined as 105%. In addition, the “He/Con 2aH” value in assay [3] was found to be 113%. Moreover, the “He/Con 2b” value in assay [4] stood at 109%. Further, the “He/Con 3a” value in assay [5] was determined as 113%.

B3: GpH7-A5/GpH7-B3 variant S324_06M/GpL16-k0 (antibody, human IgG1, kappa)
heavy 1: not shown
heavy 2: not shown
light: B1 light
notes: as for B1
For B3, the “He/Con 1a” value in assay [1] amounted to 104%. Besides, in assay [2], the “He/Con 2aR” value worked out at 118%. Further, the “He/Con 2aH” value in assay [3] was found to be 122%. Moreover, in assay [4], the “He/Con 2b” value was 126%. In addition, the “He/Con 3a” value in assay [5] was 124%.

B4: H240-Kn125/H240-Hl076/L73-k0 (antibody, human IgG1, kappa)
heavy 1: QDQLVQSGAEVKKPGASVKVSCKASGFNIKDTYIQWVRQAPGQGLEWMGRIDPLRKQTKYREKFEGRVTITADTSTNTAYMELSSLRSEDTAVYYCVRSGREFDYWGQGTLVTVSSASTKGPSVFPLAPSSKSTSGGTAALGCLVKDYFPEPVTVSWNSGALTSGVHTFPAVLQSSGLYSLSSVVTVPSSSLGTQTYICNVNHKPSNTKVDKKVEPKSCDKTHTCPPCPAPELLGGPSVFLFPPKPKDTLMISRTPEVTCVVVDVSHEEPEVKFNWYVDGVEVHNAKTKPREEQYNSTYRVVSVLTVLHQDWLNGKEYKCKVSNDALPMPIEETISKAKGQPREPQVYTLPPSRCELTKNQVSLSCAVKGFYPSDIAVEWESNGQPENNYKTTPPVLDSDGSFFLVSKLTVDKSRWQQGNVFSCSVMHEALHNHYTQKSLSLSP
heavy 2: QDQLVQSGAEVKKPGASVKVSCKASGFNIKDTYIQWVRQAPGQGLEWMGRIDPLRKQTKYREKFEGRVTITADTSTNTAYMELSSLRSEDTAVYYCVRSGREFDYWGQGTLVTVSSASTKGPSVFPLAPSSKSTSGGTAALGCLVKDYFPEPVTVSWNSGALTSGVHTFPAVLQSSGLYSLSSVVTVPSSSLGTQTYICNVNHKPSNTKVDKKVEPKSCDKTHTCPPCPAPEYQWGPMVFLFPPKPKDTLMISRTPEVTCVVVDVSDEEPEVKFNWYVDGVEVHNAKTKPREEQYNATYRVVSVLTVLHQDWLNGKEYKCKVSNKALPAPIEKTISKAKGQPREPQVCTLPPSRDELTKNQVSLWCLVKGFYPSDIAVEWESNGQPENNYKTTPPVLDSDGSFFLYSKLTVDKSRWQQGNVFSCSVMHEALHNHYTQKSLSLSP
light: DIQMTQSPSSLSASVGDRVTITCRASQDIHKYIAWYQQKPGQAPRLLIQYTSTLQPGVPSRFSGSGSGTDYTFTISSLQPEDIATYYCLQYEQLRTFGGGTKVEIKRTVAAPSVFIFPPSDEQLKSGTASVVCLLNNFYPREAKVQWKVDNALQSGNSQESVTEQDSKDSTYSLSSTLTLSKADYEKHKVYACEVTHQGLSSPVTKSFNRGEC
notes: heterodimerized anti-EREG antibody, parent of the loop-extended forms; also called HI076/Kn125; parent peptide
In general, Kd refers to a measure of binding affinity in units of concentration. B4 had a Kd in assay [6] of 0.47 nM.

B5: Kn125-L4-GS5 (antibody, human IgG1, kappa)
heavy 1: B4 heavy 1
heavy 2: B4 heavy 2 with K325G, A326S, L327G, P328G, A329S
light: B4 light
notes: heterodimerized anti-EREG antibody: altered H240-Kn125 chain (Gly/Ser peptide in loop) with H240-Hl076 and L73-k0
With B5, in assay [6], the affinity, expressed as Kd, was 1.8 nM.

B6: HI076-L2-GS6 (antibody, human IgG1, kappa)
heavy 1: B4 heavy 1 with S266G, H267G, E268S, E269G, P270G, E271S
heavy 2: B4 heavy 2
light: B4 light
notes: heterodimerized anti-EREG antibody: altered H240-Hl076 chain (Gly/Ser peptide in loop) with H240-Kn125 and L73-k0; also called Hl076-L2-GS6_2
B6: the affinity in assay [6], expressed as Kd, was 2.8 nM.

The record behind these values is patent US20260167699A1 (Chugai, published 2026).
